T1: MRS-AIMP3 complex (human cytosolic methionyl-tRNA synthetase co-expressed with AIMP3) (human, UniProt P56192 1-900; O43324 1-174)
T1 construct: human cytosolic methionyl-tRNA synthetase (MRS), gene cloned from the cDNA of HEK293 cells; Only MRS carries the Flag tag; It is the bait of the anti-Flag pull-down of the assembled MSC; source: co-expressed from a modified pETDuet-1, purified (Ni-NTA, gel filtration); not shown: Flag, C-terminal, kept
T1 sequence (looked up) 1: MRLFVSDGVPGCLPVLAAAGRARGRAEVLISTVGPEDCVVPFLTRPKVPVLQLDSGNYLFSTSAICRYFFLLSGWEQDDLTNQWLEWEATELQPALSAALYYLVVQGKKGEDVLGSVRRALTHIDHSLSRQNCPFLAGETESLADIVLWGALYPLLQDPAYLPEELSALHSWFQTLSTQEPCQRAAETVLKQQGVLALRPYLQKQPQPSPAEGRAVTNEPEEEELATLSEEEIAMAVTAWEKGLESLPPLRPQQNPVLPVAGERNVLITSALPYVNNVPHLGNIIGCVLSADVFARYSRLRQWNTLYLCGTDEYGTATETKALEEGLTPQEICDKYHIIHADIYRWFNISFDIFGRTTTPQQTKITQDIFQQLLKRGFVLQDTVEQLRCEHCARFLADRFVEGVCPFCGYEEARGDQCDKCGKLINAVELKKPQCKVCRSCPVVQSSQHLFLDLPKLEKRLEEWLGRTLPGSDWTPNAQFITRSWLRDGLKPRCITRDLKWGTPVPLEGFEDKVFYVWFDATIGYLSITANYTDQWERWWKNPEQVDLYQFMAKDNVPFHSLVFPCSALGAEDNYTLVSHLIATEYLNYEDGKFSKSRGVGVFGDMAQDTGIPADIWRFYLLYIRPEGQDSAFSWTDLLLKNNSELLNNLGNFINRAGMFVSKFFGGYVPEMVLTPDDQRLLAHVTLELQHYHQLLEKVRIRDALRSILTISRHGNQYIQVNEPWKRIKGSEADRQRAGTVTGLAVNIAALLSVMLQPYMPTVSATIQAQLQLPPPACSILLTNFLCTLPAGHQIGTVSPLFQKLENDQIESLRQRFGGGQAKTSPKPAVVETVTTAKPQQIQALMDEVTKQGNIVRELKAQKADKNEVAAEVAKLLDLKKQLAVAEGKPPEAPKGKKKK
T1 sequence (looked up) 2: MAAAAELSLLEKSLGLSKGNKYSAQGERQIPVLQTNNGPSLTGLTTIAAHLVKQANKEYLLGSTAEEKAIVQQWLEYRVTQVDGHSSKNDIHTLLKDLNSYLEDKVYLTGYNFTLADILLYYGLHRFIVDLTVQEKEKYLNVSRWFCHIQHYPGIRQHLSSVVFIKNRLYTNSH

T2: Human cytosolic isoleucyl-tRNA synthetase (human, UniProt P41252 1-1262)
T2 construct: human cytosolic isoleucyl-tRNA synthetase (IRS), gene cloned from the cDNA of HEK293 cells; also called IRS; source: recombinant from a modified pET28b, purified (Ni-NTA, gel filtration)
T2 sequence (looked up): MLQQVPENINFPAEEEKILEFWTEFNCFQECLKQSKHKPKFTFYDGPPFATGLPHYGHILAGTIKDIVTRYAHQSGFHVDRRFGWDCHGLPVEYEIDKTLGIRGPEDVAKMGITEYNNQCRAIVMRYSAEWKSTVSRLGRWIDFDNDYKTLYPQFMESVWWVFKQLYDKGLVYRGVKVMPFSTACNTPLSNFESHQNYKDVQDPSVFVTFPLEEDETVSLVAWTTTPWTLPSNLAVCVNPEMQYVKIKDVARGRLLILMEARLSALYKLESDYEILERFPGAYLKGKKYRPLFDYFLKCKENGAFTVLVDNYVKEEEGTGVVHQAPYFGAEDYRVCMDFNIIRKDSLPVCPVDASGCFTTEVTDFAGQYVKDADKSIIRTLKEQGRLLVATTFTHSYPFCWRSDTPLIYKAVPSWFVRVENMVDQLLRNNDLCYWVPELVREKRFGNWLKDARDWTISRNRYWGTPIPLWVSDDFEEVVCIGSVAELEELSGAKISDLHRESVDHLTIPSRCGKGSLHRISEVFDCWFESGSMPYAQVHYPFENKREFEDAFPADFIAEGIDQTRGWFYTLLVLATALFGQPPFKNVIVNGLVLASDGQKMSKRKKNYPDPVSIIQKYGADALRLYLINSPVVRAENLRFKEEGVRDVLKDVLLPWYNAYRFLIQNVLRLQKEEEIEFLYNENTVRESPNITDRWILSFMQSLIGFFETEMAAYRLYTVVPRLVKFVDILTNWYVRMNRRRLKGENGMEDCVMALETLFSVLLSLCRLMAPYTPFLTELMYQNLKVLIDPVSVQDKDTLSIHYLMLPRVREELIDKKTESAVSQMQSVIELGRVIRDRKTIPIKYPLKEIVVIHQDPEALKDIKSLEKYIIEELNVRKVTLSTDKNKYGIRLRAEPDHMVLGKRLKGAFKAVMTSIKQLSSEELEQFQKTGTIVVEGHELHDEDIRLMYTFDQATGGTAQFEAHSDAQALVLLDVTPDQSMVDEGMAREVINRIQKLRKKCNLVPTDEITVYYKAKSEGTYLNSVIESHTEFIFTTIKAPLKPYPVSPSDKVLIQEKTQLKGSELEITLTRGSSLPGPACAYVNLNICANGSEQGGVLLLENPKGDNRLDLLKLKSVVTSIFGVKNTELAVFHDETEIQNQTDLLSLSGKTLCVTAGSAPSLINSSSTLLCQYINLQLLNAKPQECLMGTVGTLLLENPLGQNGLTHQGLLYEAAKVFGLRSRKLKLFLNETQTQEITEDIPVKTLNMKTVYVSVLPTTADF


Columns and labels:
[1] = molecular target: T1, MRS-AIMP3 complex (human cytosolic …); test: pull-down; in vitro assembly of the MSC as in a2 but lacking IRS; anti-Flag beads on MRS-Flag; settings: both partners purified
[2] = molecular target: T2, Human cytosolic isoleucyl-tRNA …; test: SEC; purified hcLRS (or hcLRS_d106) incubated with each partner separately for 4 h, then run on gel filtration; protein incubated with buffer as control; settings: both partners purified

Row | Binder | binding result [1] | binding result [2]
1 | Human cytosolic aspartyl-tRNA synthetase (enzyme, UniProt P14868 1-501, looked up, human cytosolic DRS, gene cloned from the cDNA of HEK293 cells; also called DRS; source: recombinant from a modified pET28b, purified (Ni-NTA, gel filtration)) MPSASASRKSQEKPREIMDAAEDYAKERYGISSMIQSQEKPDRVLVRVRDLTIQKADEVVWVRARVHTSRAKGKQCFLVLRQQQFNVQALVAVGDHASKQMVKFAANINKESIVDVEGVVRKVNQKIGSCTQQDVELHVQKIYVISLAEPRLPLQLDDAVRPEAEGEEEGRATVNQDTRLDNRVIDLRTSTSQAVFRLQSGICHLFRETLINKGFVEIQTPKIISAASEGGANVFTVSYFKNNAYLAQSPQLYKQMCICADFEKVFSIGPVFRAEDSNTHRHLTEFVGLDIEMAFNYHYHEVMEEIADTMVQIFKGLQERFQTEIQTVNKQFPCEPFKFLEPTLRLEYCEALAMLREAGVEMGDEDDLSTPNEKLLGHLVKEKYDTDFYILDKYPLAVRPFYTMPDPRNPKQSNSYDMFMRGEEILSGAQRIHDPQLLTERALHHGIDLEKIKAYIDSFRFGAPPHAGGGIGLERVTMLFLGLHNVRQTSMFPRDPKRLTP | binds | 
2 | Human cytosolic arginyl-tRNA synthetase (enzyme, UniProt P54136 1-660, looked up, human cytosolic RRS, gene cloned from the cDNA of HEK293 cells; also called RRS; source: recombinant from a modified pET28b, purified (Ni-NTA, gel filtration)) MDVLVSECSARLLQQEEEIKSLTAEIDRLKNCGCLGASPNLEQLQEENLKLKYRLNILRKSLQAERNKPTKNMINIISRLQEVFGHAIKAAYPDLENPPLLVTPSQQAKFGDYQCNSAMGISQMLKTKEQKVNPREIAENITKHLPDNECIEKVEIAGPGFINVHLRKDFVSEQLTSLLVNGVQLPALGENKKVIVDFSSPNIAKEMHVGHLRSTIIGESISRLFEFAGYDVLRLNHVGDWGTQFGMLIAHLQDKFPDYLTVSPPIGDLQVFYKESKKRFDTEEEFKKRAYQCVVLLQGKNPDITKAWKLICDVSRQELNKIYDALDVSLIERGESFYQDRMNDIVKEFEDRGFVQVDDGRKIVFVPGCSIPLTIVKSDGGYTYDTSDLAAIKQRLFEEKADMIIYVVDNGQSVHFQTIFAAAQMIGWYDPKVTRVFHAGFGVVLGEDKKKFKTRSGETVRLMDLLGEGLKRSMDKLKEKERDKVLTAEELNAAQTSVAYGCIKYADLSHNRLNDYIFSFDKMLDDRGNTAAYLLYAFTRIRSIARLANIDEEMLQKAARETKILLDHEKEWKLGRCILRFPEILQKILDDLFLHTLCDYIYELATAFTEFYDSCYCVEKDRQTGKILKVNMWRMLLCEAVAAVMAKGFDILGIKPVQRM | binds | 
3 | Human cytosolic glutaminyl-tRNA synthetase (enzyme, UniProt P47897 1-775, looked up, human cytosolic QRS, gene cloned from the cDNA of HEK293 cells; also called QRS; source: recombinant from a modified pET28b, purified (Ni-NTA, gel filtration)) MAALDSLSLFTSLGLSEQKARETLKNSALSAQLREAATQAQQTLGSTIDKATGILLYGLASRLRDTRRLSFLVSYIASKKIHTEPQLSAALEYVRSHPLDPIDTVDFERECGVGVIVTPEQIEEAVEAAINRHRPQLLVERYHFNMGLLMGEARAVLKWADGKMIKNEVDMQVLHLLGPKLEADLEKKFKVAKARLEETDRRTAKDVVENGETADQTLSLMEQLRGEALKFHKPGENYKTPGYVVTPHTMNLLKQHLEITGGQVRTRFPPEPNGILHIGHAKAINFNFGYAKANNGICFLRFDDTNPEKEEAKFFTAICDMVAWLGYTPYKVTYASDYFDQLYAWAVELIRRGLAYVCHQRGEELKGHNTLPSPWRDRPMEESLLLFEAMRKGKFSEGEATLRMKLVMEDGKMDPVAYRVKYTPHHRTGDKWCIYPTYDYTHCLCDSIEHITHSLCTKEFQARRSSYFWLCNALDVYCPVQWEYGRLNLHYAVVSKRKILQLVATGAVRDWDDPRLFTLTALRRRGFPPEAINNFCARVGVTVAQTTMEPHLLEACVRDVLNDTAPRAMAVLESLRVIITNFPAAKSLDIQVPNFPADETKGFHQVPFAPIVFIERTDFKEEPEPGFKRLAWGQPVGLRHTGYVIELQHVVKGPSGCVESLEVTCRRADAGEKPKAFIHWVSQPLMCEVRLYERLFQHKNPEDPTEVPGGFLSDLNLASLHVVDAALVDCSVALAKPFDKFQFERLGYFSVDPDSHQGKLVFNRTVTLKEDPGKV | binds | 

Other lines, results leading:

Row | binding result [1] | binding result [2] | Binder
4 |  | binds | Human cytosolic leucyl-tRNA synthetase, full length (enzyme, human cytosolic leucyl-tRNA synthetase, UniProt Q9P2J5, 1176 residues; also called hcLRS; FL-hcLRS; source: recombinant from pET16b-hcLRS, purified (Ni-NTA, gel filtration)) not shown
5 | binds |  | AaRS-interacting multi-functional protein 1 (natural protein, human, UniProt Q12904 1-312, looked up, human AIMP1, gene cloned from the cDNA of HEK293 cells; also called AIMP1; source: recombinant from a modified pET28b, purified (Ni-NTA, gel filtration)) MANNDAVLKRLEQKGAEADQIIEYLKQQVSLLKEKAILQATLREEKKLRVENAKLKKEIEELKQELIQAEIQNGVKQIPFPSGTPLHANSMVSENVIQSTAVTTVSSGTKEQIKGGTGDEKKAKEKIEKKGEKKEKKQQSIAGSADSKPIDVSRLDLRIGCIITARKHPDADSLYVEEVDVGEIAPRTVVSGLVNHVPLEQMQNRMVILLCNLKPAKMRGVLSQAMVMCASSPEKIEILAPPNGSVPGDRITFDAFPGEPDKELNPKKKIWEQIQPDLHTNDECVATYKGVPFEVKGKGVCRAQTMSNSGIK
